Source: the DeepSol protein solubility set

Assay: soluble on expression in E. coli; label from the status in PepcDB or PDB records

Sequence | soluble on expression in E. coli
MGSLRLTERPHVRKARLWVKLSDGKEGWVRCDLCQRRCVIAPGKYGACGVRKNIGGELYTLVYGLLSASNIDPIEKKPLLHFYPGSTVLSISTVGCNFFCQFCQNFEISQSRLEKGLYGVYRTPEEVVRLALVYGADGITYTYNEPTIFFETVYDVAKEAKKHGLFNTMVTNGYMTPEAVDELGSLIDAATVDFKGGGDPEFYRKIMFVPDPEPIYEAILAMKDKGWWIEITNLVVPILGDKPEYVRRMARWIVENLGPEVPFHLLRFHPDYKLRHVPHTPVKTLEKLARIAMEEGLKHVYIGNVWGHPLEDTYCPKCGYKVVDREGFAIVEWRLTSDFRCPRCGYKLNFRGEYTPRNINYPMPVM | not soluble
MAVTVDDIKLSLRIDVTEDDPMIKSYLDAAKDYVQTAVSKNEDLTIYKQYDFAVSLLTQFWYQNRVTDMTKTPYQVVSMIQQLRGLVAG | not soluble
MRPTVVSMGKHFGNLGKMYGEHRFALAPNEQKAYKGFFDQAFVKTFKTYVWDQWYYYIPQTIGAYLLYDWAKKTNVAANRKNPADFANDQ | not soluble
MGHHHHHHSHRNLDSRTFITIGDRNFEVEADDLVTISELGRGAYGVVEKVRHAQSGTIMAVKRIRATVNSQEQKRLLMDLDINMRTVDCFYTVTFYGALFREGDVWICMELMDTSLDKFYRKVLDKNMTIPEDILGEIAVSIVRALEHLHSKLSVIHRDVKPSNVLINKEGHVKMCDFGISGYLVDSVAKTMDAGCKPYMAPERINPELNQKGYNVKSDVWSLGITMIEMAILRFPYESWGTPFQQLKQVVEEPSPQLPADRFSPEFVDFTAQCLRKNPAERMSYLELMEHPFF | soluble
MRVLVRNDKDDFRVKAYAGTNGVLLAMDLDASRRQGLLGFAIEKQTGSKPWLFLFNSLTFPGKAHTFPQYNATPSDQAPLQKFRWADYAVNPGATLNYRVHLAYGNPDAPQLGESLQLSITADNGQPPGQRVIFNRAVAASQAFSRKFPELDALLSANKNLPIEKWPDAPRQWLENGLLEALLGFIQRATDASWSLDIAIYEYQLQAIIDAVNAAFDRGVQVRVLYHAAPGDADTTMNQASLQHLPEANKRGRVTHAIFHDKFIVLGRLDAAGQRQPQSVLCGSTNFTANGVYRQANVLHSLDHVDIATRYLEVFEQVWATPADVGATRTWLTRNNPMQPQAPLFAGFSPRSGQGDLAEFVDIINGARRDLLFVTAFALPDSILDALLGQPHDDVLRYGLQNTASRITGFHADRTAEFAATALLNNGLEGWLKEGLKGQKGNLLVHTKAIVTDFTSEAPVIISGSHNLSVGASQSNDENFLIIRGDIDLADRYGLELLRFYEHYRFRYFARQLALKQVQPLAVDDSWSNAYYLEGDLRQLSRLRFSGRLEHHHHHH | not soluble
MDRKVAREFRHKVDFLIENDAEKDYLYDVLRMYHQTMDVAVLVGDLKLVINEPSRLPLFDAIRPLIPLKHQVEYDQLTPRRSRKLKEVRLDRLHPEGLGLSVRGGLEFGCGLFISHLIKGGQADSVGLQVGDEIVRINGYSISSCTHEEVINLIRTEKTVSIKVRHIGLIPVKSSPDEPLTWQYVDQFVSES | soluble
MGSDKIHHHHHHMNLKDLENPGVWYRPAPFWSWNDKLCEEELLRQIDEMYEKGYGGFFMHSRVGLVTEYLSEEWMRLVRSCAEHARKLGMLAWLYDEDKWPSGFAGGIVPLEKPEHRHKYLTLLKKDQIKPEDEILKKIERDGEEFYVVKRVMKLGDPWFNGTCYVDLLSRETTEAFLRSTHERYKKSCGDLFRVSIPGIFTDEPTYLRVHHPKETTLPWTERFPEEFLRRKGYDIRDHLEELFFNVKDYMKVRYDFFDVATSLFIENFTIPYAKWCEENGIFMTGHYMAEDTLRGQVEWIGAAMPHYEYMQIPGIDKLARHLEQVVTIKQVSSAAEQLGKKWVLCETFGTTGQHVSFLHRKWIADWQAVLGVTYINPHLSLYSMRGERKRDYPPNLFYQQPWWKNERFLSDYFARLNHIVTQGKREVKVLMIHPISSAWCVYSKFDDEIDKLNELFDTITKELVANKIDFHFGDEMILSKHGRVKEAKLRVGEYEYEVVVLPPLLNLKSSTVELLNSLAENGGKVFVLKDFRYGRFFPERVEGKKGRIEFLKKARVFETLEDLIEELKPFFSVDVLDTKTKENAKAVIAQKRVLEDGSYLLFLANTDIDREVHCHLELKEKRKHTYAIDLFNFKLVELKENEFVMFPASSVCIWVTDEEVPAEDEKVVSTGVLLEKEFDFETALNDFEVKMNSFNVLPVDRVEYFEAGGRVFRNEFVSKIWYEFYRLPDGTPFRVEYSFEVRKKPQKLFLVVECAENLDRITVNGREVRYERKSCIFNEEQNFLDVNFGKMEITDLVREGKNTVVLEGRKENNITGPGCHTRVKDPENHRPTEVETIYLVGDFSLVNVDETRYVIDAPKIPDHRDITRDGYPFYVGSFTLKKIFECKKDPGKRYFLKLNGVEAASVEVILNGKFLGVLFWRPFMIDITDALRNGKNELQLVLTNTLFNLIEANHKADVLEETFRRPKSFIDFEHHTDRYILLPFGLENVAVLSSSSR | not soluble
VRLSRFDLAFDIFNRPEIVNLQHIKGGVTHKVFYGRGGELETKYWGSSGSNVQVRLYDKNKEIIAHKREEKLDLGVNPFWWRLEFQLRTKAIGEDMVQDIMNRLDNFGFYKLEHIRVDQRAFTIIFLSNPELLSLAFPNLKSDSIKKKKTRVRKLLREETNQFAEELKEVLIQNLPKLNTELQLLVGEFLTLEN | not soluble
MSGLPCNERMDCTQCPKAVENSIHYTHNKKGFHLPPHKCETNILFFLLKGQILINSEEYAGTIINSGEFVLQAIASKVEILAMTDSEGILYTFDDPKAFCYDRYTYILKNVPPPLISEPLKIKPEIKLFLEGVASYLNADKICKELLEFKRKELYYLLAHYYTDYELSPVVHSLSQYTSSFEYFILKHHKQIKSVEEFAQLGGYSVTTFRRIFKAIFNEPAYEWMMKQRKESILYQLRYTDASISEICFGHGFESLSHFSNFCKKSFGDSPRNIRKKEKEEISPNT | not soluble
MSLLFDQGHAYQPLAEVLRPQTLTDYIGQQHILGPGKPLRQTLENRNLHSMIFWGPPGVGKTTLANVISNTVEARFEVLSAVQAGVKDIKLVAEKAKQAQAYGEVTVLFVDEVHRFNKAQQDAFLPYVENGTFIFIGATTENPSFELNSALLSRARVYVLKSFTDDDFRQLWQRARSLDERIAKLAIENDALDGLIQFADGDARRFLNFLEIAIDFFTSEAVITLDDIRELLSHQPRRFDKGGENFYDQISAFHKSVRGSSPDGALYWLCRMLDGGIDPLYLARRMVRIASEDIGNADPRALTLALNAWDSQERLGSPEGELSLAQAAVYLASAPKSNAVYTAFNAMMSAVRSSHSAEVPLHLRNAPTSLMKDLDYGRDYRYAHDEPHAYAAGEVYLPDHMQGQRFYDPVDRGLEQKIRQKLDFLKQLDEQAQNQEDEGHHHHHH | soluble
SPVRTECPPPAGASTTSAASLIPPPPINTQQPGVATSLLYSGSKFRGHQKSKGNSYDVEVVLQHVDTGNSYLCGYLKIKGLTEEYPTLTTFFEGEIISKKHPFLTRKWDADEDVDRKHWGKFLAFYQYAKSFNSDDFDYEELKNGDYVFMRWKEQFLVPDHTIKDISGASFAGFYYICFQKSAASIEGYYYHRSSEWYQSLNLTHVPEHSAPIYEFR | soluble
MEGGGAKDGSAAAAQTRGSGDDGSHKPLPPCCLKAKAAAAESEAKCHATVVSGWFTEPRSHSGKTSKVQYFNNPMWPGEAHSLKVENILYQGKSPYQEILVFESSTYGNVLVLDGIVQLTEKDECAYQEMVTHLPLCSIPSPKSVLVVGGGDGGVLREIARHASVENIDICEIDQLVIDVCKDFFPQLSVGFKDPRVQLHVGDAVDFLRNAPEGKYDAIIVDSSDPIGPAQELVEKPFFQTIARALKPGGVLCNQAESMWLHTHLIQDMLSICRETFKGAVHYAWTSVPTYPSGVIGFLLCAKEGPAVNFLSPVNPIEKLEGAMEAGREIRFYNSEVHRAAFVLPTFVRRELESHNTCAEKDKSETKPVAKPKKMKIMPNSAIPTAS | not soluble
MLVGLDIGTSKIVAIVAEVLEDGQLNIVGMGHTPSRGLKRGMVVNIESTVQAIQRALEEAELMADCKIHEVFVGIAGSHIKSVNSHGMVAIKDREVTKMDIDRVIETARAVTIPPDH | not soluble
